Results: patent US20260167721A1 (ABLEXIS, published 2026)

Columns and labels:
[1] = target: T1, human CD3 (on human Pan-T cells or donor PBMC) (human, UniProt P07766 23-207; P04234 22-171; P09693 23-182; P20963 22-164); assay: cell-based or functional assay
[2] = target: T1, human CD3 (on human Pan-T cells or …); assay: cell-based or functional assay; remark: listed apart in the source
[3] = target: T2, recombinant human CD3 epsilon/delta heterodimer (human, UniProt P07766 23-126; P04234 22-105); assay: BLI (Octet), mAb 5 ug/mL on FAB2G sensor, hCD3 E/D 200-50 nM
T2 construct: Recombinant heterodimer used as analyte in Octet; also called hCD3 E/D; human CD3E/D
T2 sequence (P07766 23-126, stated change not applied, chain 1 of 2): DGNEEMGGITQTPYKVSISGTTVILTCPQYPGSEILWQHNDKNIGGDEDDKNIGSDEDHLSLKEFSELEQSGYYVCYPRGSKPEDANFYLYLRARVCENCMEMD
T2 sequence (P04234 22-105, stated change not applied, chain 2 of 2): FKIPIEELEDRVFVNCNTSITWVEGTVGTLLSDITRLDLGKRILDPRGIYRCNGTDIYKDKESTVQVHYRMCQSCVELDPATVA

[4] = target: T3, recombinant human CD3 epsilon/gamma heterodimer (human, UniProt P07766 23-126; P09693 23-116); assay: BLI (Octet), mAb 5 ug/mL on FAB2G sensor, hCD3 E/G 200-50 nM;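 also: antibodies purified from hybridoma supernatants, measured by Octet binding to recombinant human CD3 protein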
T3 construct: Recombinant heterodimer used as analyte in Octet; also called hCD3 E/G
T3 sequence (P07766 23-126, chain 1 of 2): as the sequence (P07766 23-126, stated change not applied, chain 1 of 2) above
T3 sequence (P09693 23-116, chain 2 of 2): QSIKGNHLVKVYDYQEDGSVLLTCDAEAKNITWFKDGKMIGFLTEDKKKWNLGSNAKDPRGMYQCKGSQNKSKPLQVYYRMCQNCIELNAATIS

T1 sequence (P07766 23-207, chain 1 of 4): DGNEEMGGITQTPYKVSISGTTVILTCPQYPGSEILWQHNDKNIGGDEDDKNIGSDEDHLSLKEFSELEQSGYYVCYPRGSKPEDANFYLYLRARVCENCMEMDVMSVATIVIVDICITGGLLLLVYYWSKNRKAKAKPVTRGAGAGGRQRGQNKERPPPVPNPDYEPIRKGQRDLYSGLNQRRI
T1 sequence (P04234 22-171, chain 2 of 4): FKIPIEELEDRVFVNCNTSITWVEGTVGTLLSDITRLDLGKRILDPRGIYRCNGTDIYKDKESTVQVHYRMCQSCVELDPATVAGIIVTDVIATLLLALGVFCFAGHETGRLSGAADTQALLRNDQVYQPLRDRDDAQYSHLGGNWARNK
T1 sequence (P09693 23-182, chain 3 of 4): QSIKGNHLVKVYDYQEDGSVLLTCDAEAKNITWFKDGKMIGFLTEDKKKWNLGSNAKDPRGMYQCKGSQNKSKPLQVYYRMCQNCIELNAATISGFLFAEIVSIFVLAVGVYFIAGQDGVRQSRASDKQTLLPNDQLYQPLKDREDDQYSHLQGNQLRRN
T1 sequence (P20963 22-164, chain 4 of 4): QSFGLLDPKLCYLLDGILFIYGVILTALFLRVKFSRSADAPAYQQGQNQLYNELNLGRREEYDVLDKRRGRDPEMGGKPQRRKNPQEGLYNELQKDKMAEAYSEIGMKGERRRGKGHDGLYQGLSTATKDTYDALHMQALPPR

Row | Binder | Kd [3] | Response [3] | koff [3] | kon [3] | Kd [4] | Response [4] | koff [4] | kon [4] | also measured
1 | CD3 × CD33-BspAb72 (bispecific antibody) chain 1: EVQLVESGGGLVQPGGSLRLSCAASGFTFSSYSMNWVRQAPGKCLEWVSYISSSSSTIYYADSVKGRFTISRDNAKNSLYLQMNSLRDEDTAVYYCARDGPVDYGMDVWGQGTTVTVSSGGGGSGGGGSGGGGSGGGGSSYELTQPPSVSVSPGQTARITCSGDALPKQYTYWYQQKPGQAPVLVIYKDSERPSGIPERFSGSSSGTTVTLTISGVQAEDEADYYCQSADSSGTYRVFGCGTKLTVLDKTHTCPPCPAPEFEGGPSVFLFPPKPKDTLMISRTPEVTCVVVDVSHEDPEVKFNWYVDGVEVHNAKTKPREEQYNSTYRVVSVLTVLHQDWLNGKEYKCKVSNKALPASIEKTISKAKGQPREPQVYTLPPCREEMTKNQVSLWCLVKGFYPSDIAVEWESNGQPENNYKTTPPVLDSDGSFFLYSKLTVDKSRWQQGNVFSCSVMHEALHNHYTQKSLSLSPGK chain 2: EVQLVQSGAEVKKPGSSVKVSCKASGYTITDSNIHWVRQAPGQSLEWIGYIYPYNGGTDYNQKFKNRATLTVDNPTNTAYMELSSLRSEDTAFYYCVNGNPWLAYWGQGTLVTVSSASTKGPSVFPLAPSSKSTSGGTAALGCLVKDYFPEPVTVSWNSGALTSGVHTFPAVLQSSGLYSLSSVVTVPSSSLGTQTYICNVNHKPSNTKVDKRVEPKSCDKTHTCPPCPAPEFEGGPSVFLFPPKPKDTLMISRTPEVTCVVVDVSHEDPEVKFNWYVDGVEVHNAKTKPREEQYNSTYRVVSVLTVLHQDWLNGKEYKCKVSNKALPASIEKTISKAKGQPREPQVCTLPPSREEMTKNQVSLSCAVKGFYPSDIAVEWESNGQPENNYKTTPPVLDSDGSFFLVSKLTVDKSRWQQGNVFSCSVMHEALHNRFTQKSLSLSPGK chain 3: DIQLTQSPSTLSASVGDRVTITCRASESLDNYGIRFLTWFQQKPGKAPKLLMYAASNQGSGVPSRFSGSGSGTEFTLTISSLQPDDFATYYCQQTKEVPWSFGQGTKVEVKRTVAAPSVFIFPPSDEQLKSGTASVVCLLNNFYPREAKVQWKVDNALQSGNSQESVTEQDSKDSTYSLSSTLTLSKADYEKHKVYACEVTHQGLSSPVTKSFNRGEC |  |  |  |  |  |  |  |  | RTCC Assay, Donor 0, EC50 [1]: 5.36 nM; RTCC Assay, Donor 0, gMFI max [1]: 21000 gMFI; RTCC Assay, Donor 1, EC50 [1]: 0.819 nM; RTCC Assay, Donor 1, gMFI max [1]: 78100 gMFI; RTCC Assay, Donor 2, EC50 [1]: 2.43 nM; RTCC Assay, Donor 2, gMFI max [1]: 54100 gMFI; RTCC Assay, Donor 3, EC50 [1]: 4.9 nM; RTCC Assay, Donor 3, gMFI max [1]: 66200 gMFI; Cytokine Release Assay (IFNγ), Donor 0, gMFI max [2]: 465000 gMFI; Cytokine Release Assay (IFNγ), Donor 1, gMFI max [2]: 4820 gMFI; Cytokine Release Assay (IFNγ), Donor 2, EC50 [2]: 49.1 nM; Cytokine Release Assay (IFNγ), Donor 2, gMFI max [2]: 12200 gMFI; Cytokine Release Assay (IFNγ), Donor 3, gMFI max [2]: 82800 gMFI
2 | ABL-CD3-64 (antibody, V domains shown, mAb purified from hybridoma; chimeric AlivaMab IgG (human VH, CH1 and upper hinge; mouse middle hinge, CH2, CH3; human light chain)) VH: EVQVAESGGGLVKPGGSLRLSCAASGFTFSRYSMNWVRQAPGKGLEWVSSISSSGSYTYYADSVKGRFTISRDNAKNSLYLQMNSLRAEDTAVYYCVRERGKGAGMDVWGQGTTVTVSS VL: NFMLTQPHSVSESPGKTVTISCTRSSGSIASNYVQWYQQRPGSSPTTVIYEDNQRPSGVPDRFSGSIDSSSNSASLTISGLKTEDEADYYCQSYDSSNRVFGGGTKLTVL | 31.6 nM | 0.68 | 0.0054 s⁻¹ | 171000 M⁻¹ s⁻¹ | 71.9 nM | 0.46 | 0.013 s⁻¹ | 180000 M⁻¹ s⁻¹ | 
3 | ABL-CD3-87 (antibody, V domains shown, mAb purified from hybridoma; chimeric AlivaMab IgG (human VH, CH1 and upper hinge; mouse middle hinge, CH2, CH3; human light chain)) VH: EVQLVESGGGLVKFGGSLRLSCAASGFTFSRYSMNWVRQAPGKGLEWVSSISSSSSYKYYADSVKGRFTISRDNAKNSLYLQMNSLRAEDTAVYYCAREGGNSHGMDVWGQGTTVTVSS VL: NFMLTQPHSVSESPGKTVTISCTRSSGSIASNYVQWYQQRPGSSPTTVIYEDNQRPSGVPDRFSGSIDSSSNSASLTISGLKTEDEADYYCQSYDSSNRVFGGGTKLTVL | 69 nM | 0.0358 | 0.0166 s⁻¹ | 240000 M⁻¹ s⁻¹ | 131 nM | 0.36 | 0.0279 s⁻¹ | 214000 M⁻¹ s⁻¹ | 
4 | ABL-CD3-65 (antibody, V domains shown, mAb purified from hybridoma; chimeric AlivaMab IgG (human VH, CH1 and upper hinge; mouse middle hinge, CH2, CH3; human light chain)) VH: QVQLQQWGAGLLKPSETLSLTCAVYGGSFSGYYWSWIRQPPGKGLEWIGEINHSGSTNYNPSLKSRVTISVDTSKNQFSLKLSSVTAADTAVYYCAREYYYYGMDVWGQGTTVTVSS VL: not shown | 22.7 nM | 0.01 | 0.00643 s⁻¹ | 283000 M⁻¹ s⁻¹ | 18.7 nM | 0.01 | 0.00174 s⁻¹ | 93200 M⁻¹ s⁻¹ | 
